The term Kd denotes a measure of binding affinity in units of concentration. As a reminder, the koff is a measure of how fast the partners let go of each other. Low readings indicate slow dissociation, high ones fast dissociation. As usually defined, the kon is the rate constant with which the complex forms. A high value points to fast association.

The values below come from patent EP2975059A1 (Kymab Limited, dated 2016).

Common to all, as to assay: SPR ProteOn XPR36, antibody captured on anti-human IgG, PCSK9 variant as analyte, 25 C, 1:1 model
Assay [1] has as its target Human PCSK9 form f (human, UniProt Q8NBP7 31-692).
Assay [2] addresses T1, Human PCSK9 form r (human, UniProt Q8NBP7 31-692).
T1 construct: also called PCSK9 r

In assay [3] the target is T2, Human PCSK9 form a (human, UniProt Q8NBP7 31-692).
T2 construct: also called PCSK9 a

The target of assay [4] is T3, Human PCSK9 form p (human, UniProt Q8NBP7 31-692).
T3 construct: also called PCSK9 p

Assay [5] addresses T4, Human PCSK9 form c (human, UniProt Q8NBP7 31-692).
T4 construct: also called PCSK9 c

B1: Antibody 316P (antibody, V domains shown)
VH: EVQLVESGGGLVQPGGSLRLSCAASGFTFNNYAMNWVRQAPGKGLDWVSTISGSGGTTNYADSVKGRFIISRDSSKHTLYLQMNSLRAEDTAVYYCAKDSNWGNFDLWGRGTLVTVSS
VL: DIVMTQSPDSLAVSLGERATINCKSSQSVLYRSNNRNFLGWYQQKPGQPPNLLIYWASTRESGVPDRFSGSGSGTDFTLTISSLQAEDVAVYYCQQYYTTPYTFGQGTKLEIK
With B1, the Kd in assay [1] is 0.203 nM; in assay [2] it was 0.197 nM; in assay [3], 0.201 nM; in assay [4], 0.196 nM; in assay [5], 0.184 nM. For the same molecule, the koff in assay [1] was found to be 0.000282 s⁻¹; in assay [2], 0.000276 s⁻¹; in assay [3], 0.000275 s⁻¹; in assay [4], 0.000273 s⁻¹; in assay [5], 0.000275 s⁻¹. The kon in assay [1] was 1.39e+06 M⁻¹ s⁻¹; in assay [2], 1.4e+06 M⁻¹ s⁻¹; in assay [3] it was 1.37e+06 M⁻¹ s⁻¹; in assay [4], 1.39e+06 M⁻¹ s⁻¹; in assay [5], 1.49e+06 M⁻¹ s⁻¹.

B2: Evolocumab (antibody, V domains shown)
VH: QVQLVQSGAEVKKPGASVKVSCKASGYTLTSYGISWVRQAPGQGLEWMGWVSFYNGNTNYAQKLQGRGTMTTDPSTSTAYMELRSLRSDDTAVYYCARGYGMDVWGQGTTVTVSS
VL: QSALTQPASVSGSPGQSITISCTGTSSDVGGYNSVSWYQQHPGKAPKLMIYEVSNRPSGVSNRFSGSKSGNTASLTISGLQAEDEADYYCNSYTSTSMVFGGGTKLTVL
Take B2: the Kd in assay [1] turned out to be 0.229 nM; in assay [2], 0.23 nM; in assay [3] it was 0.229 nM; in assay [4] it was 0.219 nM; in assay [5] it was 0.183 nM. The koff was 2.66e-05 s⁻¹ in assay [1]; 2.67e-05 s⁻¹ in assay [2]; 2.62e-05 s⁻¹ in assay [3]; 2.5e-05 s⁻¹ in assay [4]; 2.2e-05 s⁻¹ in assay [5]. Besides, the kon in assay [1] came to 116000 M⁻¹ s⁻¹; in assay [2], 116000 M⁻¹ s⁻¹; in assay [3] it was 114000 M⁻¹ s⁻¹; in assay [4] it was 114000 M⁻¹ s⁻¹; in assay [5], 120000 M⁻¹ s⁻¹.
